A short description of this data set: protein stability index of a GFP-peptide fusion (GPS, HEK-293T) (PSI 1-6); higher = more stable.
[1] abbreviates: treatment: DMSO, c terminus: a fixed tail appended.
The mark [2] stands for this setting: treatment: MLN4924 1 uM, 8 h, c terminus: a fixed tail appended.
Setting [3] is: treatment: DMSO, c terminus: native.
The mark [4] stands for this setting: treatment: MLN4924 1 uM, 8 h, c terminus: native.

± gives the standard deviation.
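Further: 24-mer peptide tiles fused after GFP, lentivirally expressed, FACS-sorted into six equal bins by GFP/DsRed ratio, decoded by Illumina sequencing, PSI is the read-weighted mean bin number.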

In turn, HPRGWNDHVHILDTETFTWSQPIT [KLHDC2] had a protein stability index under setting [1] of 2.42 ± 0.29 and a protein stability index under setting [2] of 2.71 ± 0.54.

For the sequence HQPPYIIAVLPRYVEIRTFEPRLL [VPS39], the protein stability index under setting [1] was 2.61 ± 0.75 and the protein stability index under setting [2] turned out to be 2.38 ± 0.37.

As to HRDLKPENLLLASKLKGAAVKLAD [CAMK2A], the protein stability index under setting [1] was determined as 3.67 ± 0.22 and the protein stability index under setting [2] was determined as 3.62 ± 0.091.

In the case of HRPSTLQAASTPQAEEDWTCTIL [OAS1], the protein stability index was 4.18 ± 0.17 under setting [3] and 4.45 ± 0.14 under setting [4].

Turning to HRRDGKWQNVHFHCSGAPVAPLQ [CAMK2B], the protein stability index is 2.39 ± 0.31 under setting [3] and 2.6 ± 0.34 under setting [4].

HSNGPTDLSMKGGASTTSTTPSAL [NOL4L] had a protein stability index under setting [1] of 4.94 ± 0.19 and a protein stability index under setting [2] of 4.94 ± 0.3.

On to HSPFSSESRALSTSSNLGSQYQCE [TBX5], for which the protein stability index was 4.4 ± 0.35 under setting [1] and 4.53 ± 0.22 under setting [2].

In the case of HSQRTALHLAAQKALRTISTGRI [INVS], the protein stability index under setting [3] was found to be 3.08 ± 0.9 and the protein stability index under setting [4] turned out to be 2.36 ± 0.086.

As to HSSDEDEDEDDEEDFEDDDEWED [WASL], the protein stability index turned out to be 3.19 ± 0.17 under setting [3] and 3.33 ± 0.47 under setting [4].

As for HTPGGQNQEILLPGGITSHQLLGL [TNXB], the protein stability index is 3.33 ± 0.22 under setting [1] and 3.47 ± 0.31 under setting [2].

As for HTTIVATRHYRPPEVILELGWAQP [CLK3], the protein stability index runs as follows: under setting [1], 2.26 ± 0.26; under setting [2], 2.23 ± 0.16.

Regarding HVLALGLGIYIGKRLSTPSASTY [BNIP3L], the protein stability index is, setting by setting: under setting [3], 3.43 ± 0.86; under setting [4], 3.2 ± 0.64.

Turning to HYYKENDPSVRLKIASLLGLLSKT [INTS4], the protein stability index runs as follows: under setting [1], 2.05 ± 0.31; under setting [2], 2.18 ± 0.23.

As for IAAATSVLKTRFSYAFPKEFPYRM [CCNC], the protein stability index is 2.08 ± 0.12 under setting [1] and 2.58 ± 0.51 under setting [2].

Take IAEDGTKEIESQGSIPGFLISSGM [TAF7L]: the protein stability index by setting is: under setting [1], 4.25 ± 0.28; under setting [2], 4.21 ± 0.38.

In the case of IASIADVCESMKEQLLVLVEWAKY [HNF4A], the protein stability index by setting is: under setting [1], 2.42 ± 0.36; under setting [2], 2.15 ± 0.38.

As for ICMAQIAYSGNTSNLSYHLEKNHP [ZBED1], the protein stability index reads like this: under setting [1], 2.3 ± 0.24; under setting [2], 2.38 ± 0.26.

For ICRVFSTSPAKDSLSFEDFLDLLS [CIB1], the protein stability index is 2.34 ± 0.25 under setting [1] and 2.2 ± 0.1 under setting [2].

As for IDSSSSWWTNWVIPAISAVAVALM [CYB5A], the protein stability index came to 2.64 ± 0.14 under setting [1] and 2.69 ± 0.15 under setting [2].

IEAEGATAPLTELLHSRNEGVATY [CTNNB1]: the protein stability index under setting [1] was found to be 4.32 ± 0.27 and the protein stability index under setting [2] turned out to be 4.31 ± 0.25.

Regarding IEAKEACDWLRATGFPQYAQLYED [DLC1], the protein stability index under setting [1] came out at 3.21 ± 0.43 and the protein stability index under setting [2] turned out to be 3.31 ± 0.083.

IEARRRALKRFVNLVARHPLFSED [SNX8]: the protein stability index turned out to be 2.37 ± 0.67 under setting [1] and 2.61 ± 0.43 under setting [2].

Turning to IETGENVTGMELEFKRLASSKAHT [PTPRD], the protein stability index under setting [1] turned out to be 4.35 ± 0.12 and the protein stability index under setting [2] came to 4.33 ± 0.29.

With IEVQPNFEVPYYNRGLILYRLGYF [TTC32], the protein stability index reads like this: under setting [1], 3.17 ± 0.4; under setting [2], 2.73 ± 0.38.

Take IFLYARPNSTFPIDKSMTVVLTFI [OR4A15]: the protein stability index was 2.84 ± 0.37 under setting [1] and 3 ± 0.3 under setting [2].

Sequence IFNYMRLGSTKLSDKDKAVGIFNT [OR3A1] yielded a protein stability index under setting [1] of 2.1 ± 0.34 and a protein stability index under setting [2] of 2.36 ± 0.25.

Take IGDFGISKILSSKSKAYTVVGTPC [NEK8]: the protein stability index is, setting by setting: under setting [1], 2.35 ± 0.12; under setting [2], 2.47 ± 0.34.

As for IGELLAPAAPFDKKCGRENWTVAF [WSB1], the protein stability index is, setting by setting: under setting [1], 2.23 ± 0.12; under setting [2], 2.57 ± 0.45.

In the case of IGSKNGGKTTIILRCLDRDEPSKP [DYNC2LI1], the protein stability index reads like this: under setting [1], 2.54 ± 0.7; under setting [2], 3.16 ± 0.32.

Regarding IIDCGDIVWSLAFGSSVPEKQSRC [WSB1], the protein stability index turned out to be 2.12 ± 0.24 under setting [1] and 2.35 ± 0.28 under setting [2].

For IIHHMRLQAKALQLIVTARTTRGL [INTS4], the protein stability index turned out to be 2.5 ± 0.58 under setting [1] and 2.26 ± 0.28 under setting [2].

In the case of IIYPRQQLLTLRELEMIGFIENNV [TRIP13], the protein stability index under setting [1] stood at 2.6 ± 0.37 and the protein stability index under setting [2] is 2.26 ± 0.22.

In the case of IKAVTHQVKFGQQNPRQVAQSEAE [ZC3H15], the protein stability index was 4.86 ± 0.2 under setting [1] and 4.9 ± 0.23 under setting [2].

IKIVLINSFGAILQGSLFGLAGLL [SLC29A1]: the protein stability index is, setting by setting: under setting [1], 2.72 ± 0.32; under setting [2], 3.25 ± 0.2.

In the case of ILGKVILWILHLLLECYIQYHHSK [TMEM192], the protein stability index reads like this: under setting [1], 2.99 ± 0.51; under setting [2], 2.9 ± 0.31.

For ILPKELQAWVQKHHPENGEETVTM [ZNF396], the protein stability index worked out at 3.5 ± 0.07 under setting [1] and 3.58 ± 0.29 under setting [2].

With ILVTKVEEPSKYGVVVCEADTGRI [GMPPB], the protein stability index turned out to be 2.75 ± 0.18 under setting [1] and 2.91 ± 0.22 under setting [2].

Regarding IPAFCELPLDDQVALLRAHAGEHL [HNF4A], the protein stability index is, setting by setting: under setting [1], 2.88 ± 0.26; under setting [2], 3.22 ± 0.33.

Take IPPSSDRTPEILKKALSGLSSRWK [CDS1]: the protein stability index is, setting by setting: under setting [1], 2.39 ± 0.49; under setting [2], 2.29 ± 0.46.

With IQYLTENIWASQSVLSACDNLSDL [IQUB], the protein stability index by setting is: under setting [1], 2.49 ± 0.34; under setting [2], 2.49 ± 0.3.

Consider IRAMGRLKIDFGDSARADDARQLF [GNAI1], for which the protein stability index runs as follows: under setting [1], 2.63 ± 0.25; under setting [2], 2.77 ± 0.14.

On to IRERILGPSHPDTSYYIRYRGAVY [FEM1C], for which the protein stability index under setting [1] was determined as 2.22 ± 0.27 and the protein stability index under setting [2] worked out at 2.1 ± 0.34.

For IRRPRLYLLQWLKSDKALMMLFND [PLK2], the protein stability index under setting [1] amounted to 2.58 ± 0.48 and the protein stability index under setting [2] is 2.75 ± 0.26.

Take IRTYLGRSPLVSGDESSLLLNAAS [RHOBTB3]: the protein stability index runs as follows: under setting [1], 2.62 ± 0.35; under setting [2], 2.46 ± 0.34.

Take ISCFNNAPPAKLACPVCSKMVPRY [FAN1]: the protein stability index by setting is: under setting [1], 2.24 ± 0.19; under setting [2], 2.67 ± 0.26.

Regarding ISSIGQVQSYMEHYCNSSTDRRVL [SPACA9], the protein stability index under setting [1] came out at 3.23 ± 0.33 and the protein stability index under setting [2] was determined as 3.25 ± 0.36.

Turning to ITSSVFPSASLGKASSRKPFGILS [FBXO34], the protein stability index is, setting by setting: under setting [1], 2.65 ± 0.12; under setting [2], 2.67 ± 0.21.

As for IVDIKPANMEDLTEVITASEFHPH [PPP2R2C], the protein stability index is, setting by setting: under setting [1], 3.92 ± 0.28; under setting [2], 3.9 ± 0.41.

On to IVIGILSAYISNYAFANVFHGWKY [SLC2A12], for which the protein stability index reads like this: under setting [1], 3.01 ± 0.51; under setting [2], 3.25 ± 0.68.

Regarding IVLGPYHVKFRSLSMVSECLFSLI [MCOLN1], the protein stability index is 2.94 ± 0.68 under setting [1] and 2.78 ± 0.42 under setting [2].

As to IYLSTSSSKFYDLFLMDLSEGELG [RHOBTB2], the protein stability index by setting is: under setting [1], 3.38 ± 0.65; under setting [2], 2.9 ± 0.39.

On to KAILDAEPGPRPALQPSPSIRLPL [TBC1D10A], for which the protein stability index turned out to be 4.27 ± 0.15 under setting [1] and 4.34 ± 0.059 under setting [2].

In the case of KAQRDYELKKAAYDIEVNTRRAQA [FLOT1], the protein stability index by setting is: under setting [1], 4.17 ± 0.11; under setting [2], 4.44 ± 0.085.

In the case of KAREKDGKGRTASPINSPARGTPS [FSD1], the protein stability index by setting is: under setting [1], 4.92 ± 0.11; under setting [2], 5.19 ± 0.27.

On to KAYGWCSELIRHRRVHARKEPSH [ZNF232], for which the protein stability index by setting is: under setting [3], 2.75 ± 0.2; under setting [4], 2.51 ± 0.44.

Consider KEAQYIRTERVEQAFRAIDRGDYY [PCMTD1], for which the protein stability index was determined as 3.31 ± 0.33 under setting [1] and 3.34 ± 0.28 under setting [2].

Take KELGQSQKEQGLSDNILSPVMNGG [PDZK1]: the protein stability index was 4.73 ± 0.34 under setting [1] and 5.09 ± 0.28 under setting [2].

As for KELGTLIPKSSDPEMRWNKGTILK [TFE3], the protein stability index under setting [1] is 4.06 ± 0.28 and the protein stability index under setting [2] was 4.01 ± 0.14.

As to KEPPLLLGVLHPNTKLRQAERLFE [APMAP], the protein stability index under setting [1] is 2.64 ± 0.38 and the protein stability index under setting [2] turned out to be 2.78 ± 0.47.

As to KETLAVNYEKEEEFLTNELSRKLM [CCDC6], the protein stability index runs as follows: under setting [1], 4.05 ± 0.25; under setting [2], 4.44 ± 0.27.

KEYDVARNTGAYTSSGLATASFRT [TEKT4]: the protein stability index runs as follows: under setting [1], 3.6 ± 0.26; under setting [2], 3.69 ± 0.14.

Consider KGAILTTMLATRNFSAAKSLLKKP [CAMK2D], for which the protein stability index runs as follows: under setting [1], 2.82 ± 0.53; under setting [2], 2.8 ± 0.32.

With KGAVNLHMEEEVEDFLLKKPIVPT [CDC25A], the protein stability index is 4.14 ± 0.31 under setting [1] and 4.13 ± 0.2 under setting [2].

Turning to KGCSLEQISMELAKVNYVKNNICF [SLC2A12], the protein stability index worked out at 2.22 ± 0.35 under setting [1] and 2.27 ± 0.28 under setting [2].

For KGGVQNFNKDLVQDCGFEHLVPVI [CEP70], the protein stability index stood at 2.53 ± 0.13 under setting [1] and 3.18 ± 0.46 under setting [2].

On to KGLSVEFALLADKAAQQGKQEEND [SNX8], for which the protein stability index is, setting by setting: under setting [1], 5.237 ± 0.033; under setting [2], 5.13 ± 0.21.

As for KGTEKQTTSETQKSVQCGTWTKHA [NETO1], the protein stability index runs as follows: under setting [1], 4.84 ± 0.26; under setting [2], 4.82 ± 0.13.

For the sequence KIKPEARRYLEKSIKMGKRNGLHL [NLN], the protein stability index turned out to be 2.3 ± 0.44 under setting [1] and 2.53 ± 0.39 under setting [2].

On to KILYDDGKMVEEVDGRATQKLIVN [PTPRD], for which the protein stability index turned out to be 3.92 ± 0.34 under setting [1] and 3.605 ± 0.004 under setting [2].

Take KIRLRCQKGIPPSLRGRAWQYLSG [TBC1D10A]: the protein stability index under setting [1] came to 2.21 ± 0.094 and the protein stability index under setting [2] is 2.09 ± 0.23.

Take KKAAESLRRSVEKYNSARADFEQK [FCHO1]: the protein stability index runs as follows: under setting [1], 4.2 ± 0.18; under setting [2], 4.43 ± 0.29.

Regarding KKENKMTWAPKNKGGEERKAEGGE [IRX6], the protein stability index worked out at 5.39 ± 0.2 under setting [1] and 5.51 ± 0.27 under setting [2].
